# Reference: patent publication US10357539B2, “Use of peptides that block metadherin-SND1 interaction as treatment for cancer” (THE TRUSTEES OF PRINCETON UNIVERSITY, priority 2014, dated 2019)
# Where a chain is given by its changes, count along the chain named. Names may count otherwise. Where no end group is shown, it is not given here.
# T1: SND1 (Mus musculus, UniProt Q78PY7)
# T1 construct: endogenous in cells; host or cells: PyMT;Mtdh−/− (A9) or PyMT;Mtdh+/+ (A13) mouse mammary epithelial/tumor cells
# T1 sequence (Q78PY7 1-910): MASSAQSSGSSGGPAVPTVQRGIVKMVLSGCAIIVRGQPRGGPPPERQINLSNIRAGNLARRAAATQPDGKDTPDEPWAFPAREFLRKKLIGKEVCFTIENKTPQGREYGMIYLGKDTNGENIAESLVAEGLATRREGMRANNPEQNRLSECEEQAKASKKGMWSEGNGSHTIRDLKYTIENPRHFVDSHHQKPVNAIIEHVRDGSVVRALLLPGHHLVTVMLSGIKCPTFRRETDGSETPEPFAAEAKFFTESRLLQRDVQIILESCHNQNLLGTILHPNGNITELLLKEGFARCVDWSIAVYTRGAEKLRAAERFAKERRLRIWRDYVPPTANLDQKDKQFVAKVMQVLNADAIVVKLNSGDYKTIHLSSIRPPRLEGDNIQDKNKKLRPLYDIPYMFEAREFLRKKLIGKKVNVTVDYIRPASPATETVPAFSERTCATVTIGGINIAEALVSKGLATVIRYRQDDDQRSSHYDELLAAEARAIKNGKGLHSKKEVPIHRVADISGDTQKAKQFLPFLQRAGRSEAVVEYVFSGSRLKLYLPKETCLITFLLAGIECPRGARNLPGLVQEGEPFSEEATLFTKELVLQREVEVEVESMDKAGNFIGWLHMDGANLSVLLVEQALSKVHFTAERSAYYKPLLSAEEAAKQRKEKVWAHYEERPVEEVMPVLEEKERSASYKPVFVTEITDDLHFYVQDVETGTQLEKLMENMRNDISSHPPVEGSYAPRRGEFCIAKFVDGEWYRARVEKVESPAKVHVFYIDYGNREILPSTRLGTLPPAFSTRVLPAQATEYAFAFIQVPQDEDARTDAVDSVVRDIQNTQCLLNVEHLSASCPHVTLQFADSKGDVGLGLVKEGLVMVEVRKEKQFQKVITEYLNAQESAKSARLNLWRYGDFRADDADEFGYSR
# T2: SND1 (Homo sapiens, UniProt Q7KZF4)
# T2 construct: 15 μg of His-SND1 (16-339) was added to the resin; made in house; host or cells: E. coli DH5α
# T2 sequence (Q7KZF4 1-339): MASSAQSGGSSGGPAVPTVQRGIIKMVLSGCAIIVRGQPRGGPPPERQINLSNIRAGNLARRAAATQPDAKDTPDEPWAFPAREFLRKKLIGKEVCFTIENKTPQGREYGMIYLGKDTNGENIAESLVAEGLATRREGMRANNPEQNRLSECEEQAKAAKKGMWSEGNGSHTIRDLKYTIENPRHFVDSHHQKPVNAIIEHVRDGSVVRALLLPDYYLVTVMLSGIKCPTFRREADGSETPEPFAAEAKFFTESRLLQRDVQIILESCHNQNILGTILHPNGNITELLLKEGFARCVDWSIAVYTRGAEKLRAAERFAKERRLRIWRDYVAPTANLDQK
# B1: murine TPM1: murine Mtdh triple mutant D386R, D390R, W391D (protein, UniProt Q80WJ7 1-579, looked up, variant D386R D390R W391D)
# Protein LYRIC: MAARSWQDELAQQAEEGSARLRELLSVGLGFLRTELGLDLGLEPKRYPGWVILVGTGALGLLLLFLLGYGWAAACAGARKKRRSPPRKREEAAPPTPAPDDLAQLKNLRSEEQKKKNRKKLPEKPKPNGRTVEVPEDEVVRNPRSITAKQAPETDKKNEKSKKNKKKSKSDAKAVQNSSRHDGKEVDEGAWETKISHREKRQQRKRDKVLTDSGSLDSTIPGIENIITVTTEQLTTASFPVGSKKNKGDSHLNVQVSNFKSGKGDSTLQVSSRLNENLTVNGGGWSEKSVKLSSQLSEEKWNSVPPASAGKRKTEPSAWTQDTGDTNANGKDWGRNWSDRSIFSGIGSTAEPVSQSTTSDYQWDVSRNQPYIDDEWSGLNGLSSARPSSRDNAPAEEWGNWVDEDRASLLKSQEPISNDQKVSDDDKEKGEGALPTGKSKKKKKKKKKQGEDNSHTQDTEDLEKDTREELPVNTSKARPKQEKACSLKTMSTSDPAEVLIKNSQPVKTLPPAISAEPSITLSKGDSDNSSSQVPPMLQDTDKPKSNAKQNSVPPSQTKSETNWESPKQIKKKKKARRET
# B2: murine TPM2: murine Mtdh triple mutant E396R, E397R, W398D (protein, UniProt Q80WJ7 1-579, looked up, variant E396R E397R W398D)
# Protein LYRIC: B1 Protein LYRIC with R386D, R390D, D391W, E396R, E397R, W398D
# B3: murine W394A: murine MTDH mutant W391A, corresponding to human W394A (protein)
# chain: B1 Protein LYRIC with R386D, R390D, D391A
# B4: murine W401A: murine MTDH mutant W398A, corresponding to human W401A (protein)
# chain: B1 Protein LYRIC with R386D, R390D, D391W, W398A
# B5: MTDH fragment 364-582: GST-tagged MTDH fragment, amino acids 364-582 of SEQ ID NO: 1 (protein, listed as Homo sapiens)
# chain: YQWDVSRNQPYIDDEWSGLNGLSSADPNSDWNAPAEEWGNWVDEERASLLKSQEPIPDDQKVSDDDKEKGEGALPTGKSKKKKKKKKKQGEDNSTAQDTEELEKEIREDLPVNTSKTRPKQEKAFSLKTISTSDPAEVLVKNSQPIKTLPPATSTEPSVILSKSDSDKSSSQVPPILQETDKSKSNTKQNSVPPSQTKSETSWESPKQIKKKKKARRET
# modifications: GST tag
# B6: TPM3: MTDH triple-point mutant W404D, D406R and E407R (protein)
# chain: B5 chain with W41D, D43R, E44R
# modifications: left off: a dimerising Fc or GST
# notes: MTDH triple-point mutant W404D, D406R and E407R
# Target: T1, SND1
# Assay: Anti-MTDH immunoprecipitation from PyMT;Mtdh−/− tumor cells reconstituted with murine MTDH
# Format: cell-based
# Details: stably expressed in PyMT;Mtdh−/− tumor cells
# Description: (FIG. 8A, FIG. 8E) Lysates from PyMT;Mtdh−/− MECs reconstituted with vector control, WT or mutant murine MTDH were immunoprecipitated with anti-MTDH antibody and immunoblotted for indicated proteins. (FIG. 8B, FIG. 8F) Mammosphere assays were performed with PyMT;Mtdh−/− pMECs reconstituted with indicated Mtdh constructs. (FIG. 8C, FIG. 8D, FIG. 8G, FIG. 8H) In vivo tumor formation (FIG. 8C, FIG. 8G for tumor incidence; FIG. 8D, FIG. 8H for tumor volumes) were performed at limiting numbers using PyMT;Mtdh−/− pMECs reconstituted with indicated WT or mutant MTDH. *Note: mouse W391D MTDH corresponds to human W394D MTDH; and mouse W398D MTDH corresponds to human W401D MTDH. Statistics: (FIG. 8B, […]) Student's t-test. (FIG. 8C, FIG. 8G) Limiting dilution analysis. (FIG. 8D, FIG. 8H) Mann-Whitney test. Data represent mean±SEM. ***p<0.001, **p<0.01, *p<0.05.
# (FIG. 23A) Lysates from PyMT;Mtdh−/− tumor cells reconstituted with vector control, WT or mutant murine MTDH were immunoprecipitated with anti-MTDH antibody and immunoblotted for indicated proteins. Note all amino acid annotations are based on human MTDH. W394 and W401 of human MTDH correspond to W391 and W398 in murine MTDH, respectively. (FIG. 23B) Mammosphere assays were performed with PyMT;Mtdh−/− tumor cells reconstituted with indicated MTDH constructs. (FIG. 23C-E) In vivo tumor formation (FIG. 23C for tumor incidence; FIG. 23D, FIG. 23E for tumor volumes) were performed at limiting numbers using PyMT;Mtdh−/− tumor cells reconstituted with indicated WT or mutant MTDH. Statistics: (FIG. 23B) Student's t-test. Data represent mean±SEM. (FIG. 23C) Limiting dilution analysis. (FIG. 23D, FIG. 23E) Mann-Whitney test. **p<0.01, *p<0.05.
# Immunoprecipitation and western blot For immunoprecipitation (IP) experiments, cultured cells were washed in cold PBS and lysed in lysis buffer (20 mM Tris pH 7.4, 0.15 M NaCl, 1 mM EDTA, 1 mM EGTA, 1% Tx-100, 0.0025 M Na2P2O7, 1 mM α-glycerolphosphate, 1 mM Na3VO4, and 1 mM NaF) with an EDTA-free protease inhibitor mixture (Roche Applied Science) and PMSF. Cell lysates were then incubated on ice for 10 min, centrifuged, and precleared by incubating with protein A/G beads (Santa Cruz Biotechnology) for 1 h at 4° C. For IP bead preparation, 30 μl of protein A/G beads were incubated with 5 μg of antibodies for 2 h at 4° C. IPs were carried out for overnight at 4° C., and beads were centrifuged, washed and subsequently boiled for 5 min in SDS protein loading buffer to elute bound protein. IP lysates were subjected to western blotting with indicated antibodies. […]
row,Molecule,interaction of murine MTDH mutants with SND1
1,B1,lost the ability to interact with SND1
2,B2,lost the ability to interact with SND1
3,B3,completely lost the ability to interact with SND1
4,B4,completely lost the ability to interact with SND1

# Target: T2, SND1
# Assay: GST-mediated pull-down of SND1 by GST-tagged MTDH fragments and mutants
# Format: binding
# Details: His6-SND1ΔC (1-339); Coomassie blue staining
# From the text: FIGS. 7A-E represents determination of key regions and residues mediating the MTDH-SND1 interaction. (FIG. 7A) Schematics of MTDH fragments and mutants with indicated SND1-binding capability. + indicates binding and − indicates no binding based on results shown below. Two putative nuclear localization signals are residues 432-451 for NLS2 and residues 561-580 for NLS3. In the enlarged view of the minimal binding region 386-407, 9 residues were targeted for mutagenesis in the current study. […] (FIG. 7B) Pulldown of His6-SND1AC by GST-tagged MTDH fragments with indicated boundaries. The bound proteins were examined by SDS-PAGE and visualized by Coomassie blue staining. (FIG. 7C) Pulldown of His6-SND1ΔC by GST-tagged WT or triple mutant MTDH fragments (364-582). For (FIG. 7B) and (FIG. 7C), 1/10 of the His6-SND1ΔC input was shown, and GST alone was used as a negative control. Representative results of 3 independent experiments are shown. (FIG. 7D, FIG. 7E) Lysates from HEK293T cells expressing the indicated ectopic human SND1, AGO2 or MTDH were immunoprecipitated with anti-Myc and immunoblotted with the indicated antibodies.
# (FIG. 22A) In vitro pull-down of SND1 (16-339) by GST-tagged MTDH (364-582) harboring WT or mutant sequence. The proteins bound to GS4B were examined on SDS-PAGE and visualized by Coomassie blue staining. (FIG. 22B) In vitro pull-down of WT and mutant SND1 (16-339) by GST-tagged MTDH (364-582). The bound proteins were examined as in (FIG. 22A). For both (FIG. 22A) and (FIG. 22B), experiments were repeated three times; representative results are shown. The normalized percentage of binding was averaged from three experiments; mean±SEM was shown below the data. (FIG. 22C) HEK293T cells were transfected with human HA-SND1, WT Myc-MTDH or Myc-MTDH with indicated single point mutation. Lysates were immunoprecipitated with anti-Myc antibody and immunoblotted with the indicated antibodies. (FIG. 22D) HEK293T cells were transfected with human Myc-MTDH, WT HA-SND1 or mutant HA-SND1 with indicated single point mutations or deletions. Lysates were immunoprecipitated with anti-Myc and immunoblotted with the indicated antibodies.
# GST-Mediated Pull-Down Assay: ˜20 μg of GST-MTDH (different truncation forms and site mutants) was bound to 10 μl of glutathione resin via GST tag. The resin was washed with 200 μl assay buffer (25 mM Tris, PH8.0, 150 mM NaCl, 3 mM DTT) three times to remove the excess unbound protein. 15 μg of His-SND1 (16-339) was added to the resin in a 100 μl volume suspended in the assay buffer with 2 mg/ml of BSA. The mixture was washed with 200 μl assay buffer twice before examined by SDS-PAGE, and visualized by Coomassie blue staining. The experiments were repeated 3 times and the ratio of SND1 associated with GST-MTDH was analyzed by ImageJ.
row,Molecule,"SND1-binding of MTDH fragments and triple mutants, in vitro"
1,"22 amino-acid fragment (residues 386-407): GST-tagged minimal SND1-binding fragment of MTDH, residues 386-407 (SSADPNSDWNAPAEEWGNWVDE; also: GST-tagged fragment (tag left off))",sufficient for SND1-binding
2,B5,bound stoichiometrically
3,B6,bound SND1ΔC as effectively as the WT MTDH
